Assay results: article PMC9428403
Values joined by “and” are separate entries in the source; they are usually repeats but may differ in a detail not shown here. Equal entries are not always repeated.

Experiments:
[1] = molecular target: mouse PKM2 (AA 1-531), recombinant (mouse) (UniProt P52480); test: SEC; Superdex 200 increase 10/300 GL, 150 mM NaCl, 20 mM Tris-HCl; purified PKM2 incubated with or without Shikonin; dimer and tetramer mixture eluted at 13 ml
[2] = molecular target: PKM2 (endogenous, RAW264.7 macrophages) (mouse (endogenous in RAW264.7)) (UniProt P52480); test: cross-linking; RAW264.7 cells pre-treated 1 h with Shikonin (0.5, 1, 2 μM) or not, challenged with LPS (250 ng/ml) + IFN-γ (100 ng/ml) for 24 h; cells cross-linked with disuccinimidyl suberate (500 nM as printed) 30 min at room temperature, quenched with Tris-HCl pH 7.5; lysates analysed by western blot for PKM2

mouse PKM2 (AA 1-531), recombinant, P52480 1-531 (enzyme; other documents disagree on this pair), sequence (P52480 whole entry, the tested form may be a part): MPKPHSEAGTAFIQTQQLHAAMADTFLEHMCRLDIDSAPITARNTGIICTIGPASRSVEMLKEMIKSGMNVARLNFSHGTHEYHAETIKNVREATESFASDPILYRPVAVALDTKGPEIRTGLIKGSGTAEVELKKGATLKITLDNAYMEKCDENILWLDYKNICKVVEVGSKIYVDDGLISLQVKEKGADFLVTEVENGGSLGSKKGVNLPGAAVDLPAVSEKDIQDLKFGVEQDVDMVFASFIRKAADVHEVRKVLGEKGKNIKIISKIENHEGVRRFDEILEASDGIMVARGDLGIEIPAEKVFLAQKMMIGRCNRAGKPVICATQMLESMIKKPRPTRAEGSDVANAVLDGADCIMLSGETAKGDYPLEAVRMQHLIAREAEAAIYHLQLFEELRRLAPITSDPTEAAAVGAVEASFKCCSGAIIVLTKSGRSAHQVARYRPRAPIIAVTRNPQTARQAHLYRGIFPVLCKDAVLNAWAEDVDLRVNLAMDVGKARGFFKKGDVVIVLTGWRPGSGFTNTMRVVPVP
PKM2 (endogenous, RAW264.7 macrophages), P52480 1-531 (enzyme; other documents disagree on this pair), sequence (P52480 whole entry): as the sequence (P52480 whole entry, the tested form may be a part) above

Row | Substance | stoichiometry N [1] | stoichiometry N [2]
1 | mouse PKM2 (AA 1-531), recombinant, P52480 1-531 (enzyme; other documents disagree on this pair) | 2 and 4 | –
2 | PKM2 (endogenous, RAW264.7 macrophages), P52480 1-531 (enzyme; other documents disagree on this pair) | – | 4 and 2
